From doi:10.1101/2021.04.11.439388 (bioRxiv, 2021)

Columns and labels:
mouse PD-L1-Fc [1] = biological target: T1, mouse PD-L1-Fc (mouse, UniProt Q9EP73); experiment: ELISA
mouse PD-L1-Fc [2] = biological target: T1, mouse PD-L1-Fc; experiment: ELISA; remark: listed apart in the source

T1 sequence (Q9EP73 19-239): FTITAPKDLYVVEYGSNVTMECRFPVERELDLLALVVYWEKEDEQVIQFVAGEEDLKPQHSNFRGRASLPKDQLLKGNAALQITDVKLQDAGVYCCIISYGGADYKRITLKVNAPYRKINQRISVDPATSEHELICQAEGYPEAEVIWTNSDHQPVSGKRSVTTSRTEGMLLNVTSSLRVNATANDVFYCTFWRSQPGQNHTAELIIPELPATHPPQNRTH

- IC50 (mouse PD-L1-Fc [1]): 6.78 nM
- EC50 (mouse PD-L1-Fc [2]): 0.516 nM
B1: PD-L1 nanobody Nb16 (VHH linked to an Fc fragment) (VHH)
VHH: QVQLQESGGGSVQAGGSLRLSCAASGYTDRNYWMGWFRQAPGKEREGVAALYTRTGSTYYADSVKGRFTISHDNAKNTLYLQMNSLKPEDTAVYYCAADSNAYGLAPLHHYWGQGTQVTVSS
